Assay results: paper PMC4770236
Values belong to the molecule of their own block, whether it stands above or below them.

Key:
[1] = biological target: TRFH domain of TRF2 (TRF2 dimerization domain) (human); assay: ITC
[2] = biological target: TRF2 (Telomeric Repeat-binding Factor 2), full length (human); assay: ITC
[3] = biological target: TRF2 (Telomeric Repeat-binding Factor 2), full length (human); assay: SEC-MALS + ITC
[4] = biological target: TRF2 (Telomeric Repeat-binding Factor 2), full length (human); assay: SAXS
RAP1 = biological target: T1, RAP1 (human, UniProt Q9NYB0 1-399); assay: ITC
T1 sequence: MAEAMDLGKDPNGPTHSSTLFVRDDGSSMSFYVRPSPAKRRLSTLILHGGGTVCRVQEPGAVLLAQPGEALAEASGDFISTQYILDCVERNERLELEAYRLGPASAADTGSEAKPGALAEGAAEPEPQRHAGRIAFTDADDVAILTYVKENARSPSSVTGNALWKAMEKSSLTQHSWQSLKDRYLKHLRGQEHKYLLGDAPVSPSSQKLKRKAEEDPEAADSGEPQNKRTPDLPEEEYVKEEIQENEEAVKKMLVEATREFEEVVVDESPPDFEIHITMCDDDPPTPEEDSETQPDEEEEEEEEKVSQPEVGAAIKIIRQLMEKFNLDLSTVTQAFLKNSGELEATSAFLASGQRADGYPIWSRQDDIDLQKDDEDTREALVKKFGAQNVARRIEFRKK

[5] = biological target: TRF2 (Telomeric Repeat-binding Factor 2), full length (human); assay: ITC; remark: listed apart in the source

Molecule: TRF2 (Telomeric Repeat-binding Factor 2), full length (natural protein)
stoichiometry N [3]: 2 | stoichiometry N [4]: 2

B1: T2-S1-S2 (T2AG3 duplex) (dsDNA)
DNA 1: CTAGGGTTAGGGTTAG
DNA 2: CTAACCCTAACCCTAG
binding result (RAP1): no binding

Second part, the molecule after the results:

Kd [1]: 0.059 µM | Kd [2]: 0.046 µM
Molecule: Apollo-YLP peptide (Apollo residues 494-511)

KD of the high affinity site (two-independent sites model) [5]: < 0.001 µM | KD of the lower affinity site (two-independent sites model) [5]: 0.5 µM
B2: RAP1 (Repressor Activator Protein 1), full length (natural protein)
chain: MAEAMDLGKDPNGPTHSSTLFVRDDGSSMSFYVRPSPAKRRLSTLILHGGGTVCRVQEPGAVLLAQPGEALAEASGDFISTQYILDCVERNERLELEAYRLGPASAADTGSEAKPGALAEGAAEPEPQRHAGRIAFTDADDVAILTYVKENARSPSSVTGNALWKAMEKSSLTQHSWQSLKDRYLKHLRGQEHKYLLGDAPVSPSSQKLKRKAEEDPEAADSGEPQNKRTPDLPEEEYVKEEIQENEEAVKKMLVEATREFEEVVVDESPPDFEIHITMCDDDPPTPEEDSETQPDEEEEEEEEKVSQPEVGAAIKIIRQLMEKFNLDLSTVTQAFLKNSGELEATSAFLASGQRADGYPIWSRQDDIDLQKDDEDTREALVKKFGAQNVARRIEFRKK
